Results taken from patent US20220119450A1 (UNIVERSITY OF TARTU, published 2022).
No end group written: not given here.

T1: recombinant His-tagged Neuropilin-1 b1b2 domain (UniProt O14786 273-586, limits assumed)
T1 construct: domain: b1b2; also called NRP-1; NRP1
T1 sequence (looked up): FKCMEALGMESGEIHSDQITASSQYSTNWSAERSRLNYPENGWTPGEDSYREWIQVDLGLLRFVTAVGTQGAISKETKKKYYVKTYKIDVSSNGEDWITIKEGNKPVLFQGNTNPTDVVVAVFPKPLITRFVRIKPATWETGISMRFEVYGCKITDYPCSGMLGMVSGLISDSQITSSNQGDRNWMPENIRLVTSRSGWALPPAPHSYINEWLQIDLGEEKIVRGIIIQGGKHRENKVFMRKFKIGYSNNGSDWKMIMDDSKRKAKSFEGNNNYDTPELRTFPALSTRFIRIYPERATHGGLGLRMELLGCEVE

T2: recombinant His-tagged tenascin-C C domain (TNC-C)
T2 construct: 112 amino acids, expressed in E. coli from pET28a+ with N-terminal His-tag
T2 chain: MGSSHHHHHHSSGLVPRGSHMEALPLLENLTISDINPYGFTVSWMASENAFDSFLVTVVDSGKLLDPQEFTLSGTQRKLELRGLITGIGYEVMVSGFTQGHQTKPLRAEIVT

B1: PL1 peptide displayed on T7 phage (PPRRGLIKLKTS) (peptide)
peptide: PPRRGLIKLKTS
modifications: not fully specified (N-terminus); also: displayed on T7 phage capsid protein
notes: also called PL1 phage
B2: PL3 peptide displayed on T7 phage (AGRGRLVR) (peptide)
peptide: AGRGRLVR
modifications: also: displayed on T7 phage, fusion site not given here
notes: also called PL3 phage; PL-3 phage

Experiments:
[1] = molecular target: T1, recombinant His-tagged Neuropilin-1 …; test: T7 phage binding to protein-coated magnetic beads
[2] = molecular target: T2, recombinant His-tagged tenascin-C C …; test: binding specificity, T7 peptide phage
Experimental: (§1) To identify bispecific peptides that interact with both TNC-C and FN-EDB, cross screens were performed on both targets. During the first round of selection, microtiter plates coated with 20 μg/ml recombinant purified TNC-C were blocked with PBS containing 1% bovine serum albumin (BSA), followed by incubation with 5×10⁸ pfu of phages in PBS at 4° C. overnight, by washes to remove background, and by phage rescue and amplification in BLT5403 strain of E. coli (Novagen, EMD Biosciences, MA, USA) (Teesalu et al., Methods Enzymol. 503:35-56 (2012)). The following rounds of biopanning were carried on Ni-NTA Magnetic Agarose Beads (QIAGEN, Hilden, Germany) coated with hexahistidine-tagged FN-EDB (3 μg/μl beads) at room temperature. After 5 rounds of selection, a set of random clones was sequenced, and individual peptide-phage clones and control (G7 peptide-displaying or insertless) phages were incubated with FN-EDB and TNC-C-coated magnetic beads. RPARPAR phage (SEQ ID NO:5) and His-tagged NRP-1 b1b2 domain were used as positive control (Teesalu et al., Proc. Natl. Acad. Sci. U.S.A 106:16157-62 (2009)). To address the specificity of the peptide phage binding to the FN-EDB and TNC-C, the protein-coated beads were pre-incubated with 20 μg/ml blocking rabbit polyclonal antibodies.
(§2) Immobilized FAM-PL1 was probed with recombinant His-tagged EDB and TNC-C (or control BSA), followed by sequential incubation with rabbit anti-His-tag primary antibody, secondary goat anti-rabbit HRP antibody and a chromogenic peroxidase reaction.

[3] = molecular target: T3, recombinant His-tagged fibronectin extra domain B (FN-EDB); test: binding specificity, T7 peptide phage
T3 construct: 112 amino acids, expressed in E. coli from pET28a+ with N-terminal His-tag; also called fibronectin EDB-domain
Experimental: as §1, §2

[4] = molecular target: T1, recombinant His-tagged Neuropilin-1 …; test: T7 phage binding to recombinant NRP-1 b1b2
[5] = molecular target: T2, recombinant His-tagged tenascin-C C …; test: T7 phage binding to recombinant protein
[6] = molecular target: T3, recombinant His-tagged fibronectin …; test: T7 phage binding to recombinant protein

| Binder | binding result [1] | binding result [2] | binding result [3] | fold more than heptaglycine control phage [4] [fold] | binding result [5] | binding result [6] |
| --- | --- | --- | --- | --- | --- | --- |
| B1 | no binding | binds | binds | – | – | – |
| B2 | – | – | – | ~200 | binds | no binding |
